For the assay, the target named is Amyloid-beta(1-42) Aβ(1-42) (Homo sapiens, UniProt P05067). In words: BLI.

A word on the Kd: it is the equilibrium constant for the complex coming apart.

Take RPITRLRTHQNR [DB3]: binding was put at a Kd of 75 µM. The figure for RPITRLRTHQNRRPITRLRTHQNR [DB3DB3] is 1 µM.

Source of the values: paper PMC4841555 (2016).
